Test results taken from patent US8357523B2, “Beta-glucosidase variant enzymes and related polynucleotides” (Codexis, Inc., priority 2009, dated 2013).

B1: 284 (protein)
chain: STAIAQEGAAPAAILHPEKWPRPATQRLIDPAVEKRVDALLKQLSVEEKVGQVIQGDIGTITPEDLRKYPLGSILAGGDSGPNGDDRAPPKEWLDLADAFYRVSLEKRPGHTPIPVLFGIDAVHGHGNIGSATIFPHNIALGMTRDPELLRRIGEVTAEEMAATGIDWTFAPALSVVRDDRWGRTYEGFSEDPEIVASYSAAIVEGVQGKYGSKDFMAPGRIVASAKHFLADGGTDQGRDQGDARISEDELIRIHNAGYPPAIDAGVLTVMASFSSWQGIKHHGHKQLLTDVLKGQMRFNGFIVGDWNAHEQVPGCTKFNCPTSLIAGLDMYMAADSWKQLYENTLAQVKDGTIPMARLDDAVRRILRVKVLAGLFEKPAPKDRPGLPGLETLGSPEHRAVGREAVRKSLVLLKNDKGTLPLSPKARVLVAGDGADNIGKQSGGWTISWQGTGNRNDEFPGATSILGGIRDAVADAGGSVEFDVAGQYKTKPDVAIVVFGEEPYAEFQGDVETLEYQPDQKQDLALLKKLKDQGIPVVAVFLSGRPMWVNPELNASDAFVAAWLPGTEGGGVADVLFTDKAGKVQHDFAGKLSYSWPRTAAQTTVNRGDADYNPLFAYGYGLTYKDKSKVGTLPEESGVPAEARQNAGIYFRAGALRLPGRFL
B2: 287 (protein)
chain: STAIAQEGAAPAAILHPEKWPRPATQRLIDPAVEKRVDALLKQLSVEEKVGQVIQGDIGTITPEDLRKYPLGSILAGGDSGPNGDDRAPPKEWLDLADAFYRVSLEKRPGHTPIPVLFGIDAVHGHGNIGSATIFPHNIALGMTRDPELLRRIGEVTAEEMAATGIDWTFAPALSVVRDDRWGRTYEGFSEDPEIVASYSAAIVEGVQGKYGSKDFMAPGRIVASAKHFLADGGTDQGRDQGDARISEDELIRIHNAGYPPAIDAGVLTVMASFSSWQGIKHHGHKQLLTDVLKGQMGFNGFIVGDWNAHGQVPGCTKFNCPTSLIAGLDMYMAADSWKQLYENTLAQVKDGTIPMARLDDAVRRILRVKVLAGLFEKPAPKDRPGLPGLETLGSPEHRAVGREAVRKSLVLLKNDKGTLPLSPKARVLVAGDGADNIGKQSGGWTISWQGTGNRNDEFPGATSILGGIRDAVADAGGSVEFDVAGQYKTKPDVAIVVFGEEPYAEFQGDVETLEYQPDQKQDLALLKKLKDQGIPVVAVFLSGRPMWVNPELNASDAFVAAWLPGTEGGGVADVLFTDKAGKVQHDFAGKLSYSWPRTAAQTTVNRGDADYNPLFAYGYGLTYKDKSKVGTLPEESGVPAEARQNAGIYFRAGALRLPGRFL
B3: 283 (protein)
chain: STAIAQEGAAPAAILHPEKWPRPATQRLIDPAVEKRVDALLKQLSVEEKVGQVIQGDIGTITPEDLRKYPLGSILAGGDSGPNGDDRAPPKEWLDLADAFYRVSLEKRPGHTPIPVLFGIDAVHGHGNIGSATIFPHNIALGMTRDPELLRRIGEVTAEEMAATGIDWTFAPALSVVRDDRWGRTYEGFSEDPEIVASYSAAIVEGVQGKYGSKDFMAPGRIVASAKHFLADGGTDQGRDQGDARISEDELIRIHNAGYPPAIDAGVLTVMASFSSWQGIKHHGHKQLLTDVLKGQMGFNGFIVGDWNAHDQVPGCTKFNCPTSLIAGLDMYMAADSWKQLYENTLAQVKDGTIPMARLDDAVRRILRVKMLAGLFEKPAPKDRPGLPGLETLGSPEHRAVGREAVRKSLVLLKNDKGTLPLSPKARVLVAGDGADNIGKQSGGWTISWQGTGNRNDEFPGATSILGGIRDAVADAGGSVEFDVAGQYKTKPDVAIVVFGEEPYAEFQGDVETLEYQPDQKQDLALLKKLKDQGIPVVAVFLSGRPMWVNPELNASDAFVAAWLPGTEGGGVADVLFTDKAGKVQHDFAGKLSYSWPRTAAQTTVNRGDADYNPLFAYGYGLTYKDKSKVGTLPEESGVP
B4: 215 (protein)
chain: STAIAQEGAPPAAILHPEKWPRPATQRLIDPAVEKRVDALLKQLSVEEKVGQVIQGDIGTITPEDLRKYPLGSILAGGDSGPNGDDRAPPKEWLDLADAFYRVSLEKRPGHTPIPVLFGIDAVHGHGNIGSATIFPHNIALGMTRDPELLRRIGEVTAEEMAATGIDWTFAPALSVVRDDRWGRTYEGFSEDPEIVASYSAAIVEGVQGKYGSKDFMAPGRIVASAKHFLADGGTDQGRDQGDARISEDELIRIHNAGYPPAIDAGVLTVMASFSSWQGIKHHGHKQLLTDVLKGQMGFNGFIVGDWNAHDQVPGCTKFNCPTSLIAGLDMYMAADSWKQLYENTLAQVKDGTIPMARLDDAVRRILRVKVLAGLFEKPAPKDRPGLPGLETLGSPEHRAVGREAVRKSLVLLKNDKGTLPLSPKARVLVAGDGADNIGKQSGGWTISWQGTGNRNDEFPGATSILGGIRDAVADAGGSVEFDVAGQYKTKPDVAIVVFGEEPYAEFQGDVETLEYQPDQKQDLALLKKLKDQGIPVVAVFLSGRPMWVNPELNASDAFVAAWLPGTEGGGVADVLFTDKAGKVQHDFAGKLSYSWPRTAAQTTVNRGDADYNPLFAYGYGLTYKDKSKVGTLPEESGVP
B5: 216 (protein)
chain: STAIAQEGAAPAATLHPEKWPRPATQRLIDPAVEKRVDALLKQLSVEEKVGQVIQGDIGTITPEDLRKYPLGSILAGGDSGPNGDDRAPPKEWLDLADAFYRVSLEKRPGHTPIPVLFGIDAVHGHGNIGSATIFPHNIALGMTRDPELLRRIGEVTAEEMAATGIDWTFAPALSVVRDDRWGRTYEGFSEDPEIVASYSAAIVEGVQGKYGSKDFMAPGRIVASAKHFLADGGTDQGRDQGDARISEDELIRIHNAGYPPAIDAGVLTVMASFSSWQGIKHHGHKQLLTDVLKGQMGFNGFIVGDWNAHDQVPGCTKFNCPTSLIAGLDMYMAADSWKQLYENTLAQVKDGTIPMARLDDAVRRILRVKVLAGLFEKPAPKDRPGLPGLETLGSPEHRAVGREAVRKSLVLLKNDKGTLPLSPKARVLVAGDGADNIGKQSGGWTISWQGTGNRNDEFPGATSILGGIRDAVADAGGSVEFDVAGQYKTKPDVAIVVFGEEPYAEFQGDVETLEYQPDQKQDLALLKKLKDQGIPVVAVFLSGRPMWVNPELNASDAFVAAWLPGTEGGGVADVLFTDKAGKVQHDFAGKLSYSWPRTAAQTTVNRGDADYNPLFAYGYGLTYKDKSKVGTLPEESGVP
B6: 285 (protein)
chain: STAIAQEGAAPAAILHPEKWPRPATQRLIDPAVEKRVDALLKQLSVEEKVGQVIQGDIGTITPEDLRKYPLGSILAGGDSGPNGDDRAPPKEWLDLADAFYRVSLEKRPGHTPIPVLFGIDAVHGHGNIGSATIFPHNIALGMTRDPELLRRIGEVTAEEMAATGIDWTFAPALSVVRDDRWGRTYEGFSEDPEIVASYSAAIVEGVQGKYGSKDFMAPGRIVASAKHFLADGGTDQGRDQGDARISEDELIRIHNAGYPPAIDAGVLTVMASFSSWQGIKHHGHKQLLTDVLKGQMGFNGFIVGDWNAHDQVPGCTKFNCPTSLIAGLDMYMAADSWKQLYENTLAQVKDGTIPMARLDDAVRRILRVKVLAGLFEKPAPKDRPELPGLETLGSPEHRAVGREAVRKSLVLLKNDKGTLPLSPKARVLVAGDGADNIGKQSGGWTISWQGTGNRNDEFPGATSILGGIRDAVADAGGSVEFDVAGQYKTKPDVAIVVFGEEPYAEFQGDVETLEYQPDQKQDLALLKKLKDQGIPVVAVFLSGRPMWVNPELNASDAFVAAWLPGTEGGGVADVLFTDKAGKVQHDFAGKLSYSWPRTAAQTTVNRGDADYNPLFAYGYGLTYKDKSKVGTLPEESGVP
B7: 217 (protein)
chain: STAIAQEGASPAAILHPEKWPRPATQRLIDPAVEKRVDALLKQLSVEEKVGQVIQGDIGTITPEDLRKYPLGSILAGGDSGPNGDDRAPPKEWLDLADAFYRVSLEKRPGHTPIPVLFGIDAVHGHGNIGSATIFPHNIALGMTRDPELLRRIGEVTAEEMAATGIDWTFAPALSVVRDDRWGRTYEGFSEDPEIVASYSAAIVEGVQGKYGSKDFMAPGRIVASAKHFLADGGTDQGRDQGDARISEDELIRIHNAGYPPAIDAGVLTVMASFSSWQGIKHHGHKQLLTDVLKGQMGFNGFIVGDWNAHDQVPGCTKFNCPTSLIAGLDMYMAADSWKQLYENTLAQVKDGTIPMARLDDAVRRILRVKVLAGLFEKPAPKDRPGLPGLETLGSPEHRAVGREAVRKSLVLLKNDKGTLPLSPKARVLVAGDGADNIGKQSGGWTISWQGTGNRNDEFPGATSILGGIRDAVADAGGSVEFDVAGQYKTKPDVAIVVFGEEPYAEFQGDVETLEYQPDQKQDLALLKKLKDQGIPVVAVFLSGRPMWVNPELNASDAFVAAWLPGTEGGGVADVLFTDKAGKVQHDFAGKLSYSWPRTAAQTTVNRGDADYNPLFAYGYGLTYKDKSKVGTLPEESGVP
B8: 214 (protein)
chain: STLIAQEGAAPAAILHPEKWPRPATQRLIDPAVEKRVDALLKQLSVEEKVGQVIQGDIGTITPEDLRKYPLGSILAGGDSGPNGDDRAPPKEWLDLADAFYRVSLEKRPGHTPIPVLFGIDAVHGHGNIGSATIFPHNIALGMTRDPELLRRIGEVTAEEMAATGIDWTFAPALSVVRDDRWGRTYEGFSEDPEIVASYSAAIVEGVQGKYGSKDFMAPGRIVASAKHFLADGGTDQGRDQGDARISEDELIRIHNAGYPPAIDAGVLTVMASFSSWQGIKHHGHKQLLTDVLKGQMGFNGFIVGDWNAHDQVPGCTKFNCPTSLIAGLDMYMAADSWKQLYENTLAQVKDGTIPMARLDDAVRRILRVKVLAGLFEKPAPKDRPGLPGLETLGSPEHRAVGREAVRKSLVLLKNDKGTLPLSPKARVLVAGDGADNIGKQSGGWTISWQGTGNRNDEFPGATSILGGIRDAVADAGGSVEFDVAGQYKTKPDVAIVVFGEEPYAEFQGDVETLEYQPDQKQDLALLKKLKDQGIPVVAVFLSGRPMWVNPELNASDAFVAAWLPGTEGGGVADVLFTDKAGKVQHDFAGKLSYSWPRTAAQTTVNRGDADYNPLFAYGYGLTYKDKSKVGTLPEESGVP

Assay: High throughput cellobiose assay: fold improvement in cellobiase activity of CelA variants over a control enzyme (Tables 2A-2D, 3, 5, 6, 7)
Type: biochemical
Conditions: 3.3 g/l cellobiose, 55° C. and pH 5.3 (incubation overnight)

Molecule | Fold improvement over Control Variant No. 94 from Table 2B
B1 | ++++ (++++ = 1.1 to 1.5 fold improvement over Control No. 3, Variant No. 94)
B2 | ++++ (++++ = 1.1 to 1.5 fold improvement over Control No. 3, Variant No. 94)
B3 | ++++ (++++ = 1.1 to 1.5 fold improvement over Control No. 3, Variant No. 94)
B4 | ++++ (++++ = 1.1 to 1.5 fold improvement over Control No. 3, Variant No. 94)
B5 | ++++ (++++ = 1.1 to 1.5 fold improvement over Control No. 3, Variant No. 94)
B6 | ++++ (++++ = 1.1 to 1.5 fold improvement over Control No. 3, Variant No. 94)
B7 | ++++ (++++ = 1.1 to 1.5 fold improvement over Control No. 3, Variant No. 94)
B8 | ++++ (++++ = 1.1 to 1.5 fold improvement over Control No. 3, Variant No. 94)
